Patent publication US20200079844A1
Where two headings read alike, the source gives them in different places.

Experiments:
[1] = target: rhesus TNFα (rhesus) (UniProt P48094); assay: cell-based or functional assay
[2] = target: rhesus TNFα (rhesus) (UniProt P48094)
[3] = target: rhesus TNFα (rhesus) (UniProt P48094); remark: listed apart in the source
[4] = target: human TNFα (human) (UniProt P01375); assay: cell-based or functional assay
[5] = target: human TNFα (human) (UniProt P01375); assay: cell-based or functional assay; remark: listed apart in the source

Sequence of human TNFα (human) (P01375 77-233 limits assumed): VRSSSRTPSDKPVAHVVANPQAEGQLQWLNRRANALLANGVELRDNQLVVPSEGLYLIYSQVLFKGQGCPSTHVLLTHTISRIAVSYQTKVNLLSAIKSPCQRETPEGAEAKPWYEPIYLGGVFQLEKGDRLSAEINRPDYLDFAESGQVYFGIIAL
Sequence of rhesus TNFα (rhesus) (P48094 77-233 limits assumed): as the sequence (P01375 77-233 limits assumed) above, with R44T, T72N, R138L counted along it

Substance | EC50 in nM (mean); L929s + Act D cytotoxicity assay, rhesus TNFa @ 0.5 ng/ml [1] | EC50 in nM (mean); L929s + Act D cytotoxicity assay, rhesus TNFα @ 0.5 ng/ml [1] | EC50 (read off the curve) [2] | EC50 (read off the curve) [3] | EC50 in nM (mean); cytotoxicity assay, human TNFα [4] | EC50 in nM; alphaKYM cell assay (10000 c/w), human TNFa @ 1 ng/ml [4] | EC50 in nM (mean); cytotoxicity assay, human TNFα [5] | IC50 in pM; TNFα-induced IL-6 production by RA synovial fibroblasts, donor DS534 P4 [4] | IC50 in pM; TNFα-induced IL-6 production by RA synovial fibroblasts, donor DS592 P4 [4] | IC50 in pM; TNFα-induced IL-6 production by RA synovial fibroblasts, donor DS605 P3 [4] | IC50 in pM; TNFα-induced IL-6 production by RA synovial fibroblasts, donor KM05-179 P4 [4] | p[IC]50; TNFα-induced IL-6 production by RA synovial fibroblasts, donor DS534 P4 [4] | p[IC]50; TNFα-induced IL-6 production by RA synovial fibroblasts, donor DS592 P4 [4] | p[IC]50; TNFα-induced IL-6 production by RA synovial fibroblasts, donor DS605 P3 [4] | p[IC]50; TNFα-induced IL-6 production by RA synovial fibroblasts, donor KM05-179 P4 [4] | EC50 in nM (mean); L929s + Act D cytotoxicity assay, human TNFa @ 0.5 ng/ml [4] | EC50 in nM (mean); L929s + Act D cytotoxicity assay, human TNFα @ 0.5 ng/ml [4]
Remicade (Infliximab) (antibody) | > 6.7 nM | > 6.7 nM |  |  |  |  |  |  |  |  |  |  |  |  |  |  | 
Humira (Adalimumab) (antibody) | 0.071 nM | 0.071 nM | 100 pM | 90 pM | 0.141 nM | 0.103 nM | 0.127 nM |  |  |  |  |  |  |  |  |  | 
ALX0071 |  |  |  |  |  |  |  | 132 pM | 363 pM | 427 pM | 537 pM | 9.88 | 9.44 | 9.37 | 9.27 |  | 
Enbrel (Etanercept) (Fc fusion) | 0.009 nM | 0.009 nM |  | 10 pM |  | 0.04 nM |  | 282 pM | 324 pM | 309 pM | 309 pM | 9.55 | 9.49 | 9.51 | 9.51 | 0.009 nM | 0.009 nM
